Key:
[1] = biological target: T1, MUC1-C-L-6×His (His-tagged human MUC1-C protein extracellular domain) (human, UniProt P15941 961-1152); experiment: ELISA, coated antigen, hybridoma supernatant
T1 construct: template human MUC1 UniProt P15941; expressed in 293 cells; also called hMUC1-C-L-his; MUC1-C-L-His

[2] = biological target: T2, cyno MUC1-C on stably transfected CHOK1 cells (cyno); experiment: FACS, CHOK1-cyno-MUC1-C
T2 construct: domain: MUC1-C; also called CHOK1-cyno-MUC1-C cells; Monkey MUC1-CT

[3] = biological target: T3, human EGFR as expressed on tumour cell lines (HCC827, T47D, HPAC) (human, UniProt P00533 25-1210); experiment: FACS, HPAC
T3 construct: whole, on cells; the cell line is named under assay; also called HCC827 cells; T47D cells

[4] = biological target: T3, human EGFR as expressed on tumour cell …; experiment: FACS, HCC827
[5] = biological target: T4, human EGFR-His antigen (human, UniProt P00533 25-645); experiment: SPR Biacore 8K, antibody on Protein A chip, 1:1 fit
T4 construct: also called hEGFR-His

[6] = biological target: T4, human EGFR-His antigen; experiment: SPR Biacore T200, antibody on Protein A chip, 1:1 fit
[7] = biological target: T5, cynomolgus EGFR-his (Cat. #90285-C08H, Sino Biological) (cynomolgus, UniProt A0A2K5WK39 25-645); experiment: as above
T5 construct: bought reagent; also called Cyno EGFR-His

[8] = biological target: T1, MUC1-C-L-6×His (His-tagged human MUC1-C …); experiment: SPR Biacore 8K, antibody on Protein A chip, 1:1 fit
[9] = biological target: T6, Cynomolgus MUC1 his (Cat. #MU1-C52H5, Acro) (cynomolgus); experiment: SPR Biacore T200, antibody on Protein A chip, 1:1 fit
T6 construct: bought reagent; also called Cyno MUC1-His

[10] = biological target: T4, human EGFR-His antigen; experiment: SPR Biacore 8K, antibody on Protein A chip, 1:1 fit; remark: listed apart in the source
[11] = biological target: T4, human EGFR-His antigen; experiment: SPR Biacore 8K, antibody on Protein A chip; Ag1 blank, Ag2 hEGFR-His
[12] = biological target: T4, human EGFR-His antigen; experiment: SPR Biacore 8K, antibody on Protein A chip; Ag1 hMUC1-C-His bound first, Ag2 hEGFR-His

B1: F4-18 (antibody of hybridoma 36G9) (antibody, V domains shown)
VH: EVQLQQSGAELVRPGSSVKMSCKTSGYTFTSYGINWVKQRPGQGLEWIGYIYLGSDYTEYNEKFKGKATLTSDTTSSTAYMQLSSLTSEDSAIYFCARSAGSLFAYWGQGTLVTVSA
VL: DIQLTQSPSSLSASLGERVSLTCRASQDIGITLNWLQQEPDGTIKRLIYATSSLDSGVPKRFSGSRSGSDYSLTISSLESEDFVDYYCLQYASSPYTFGGGTKLEIK
notes: murine antibody tested as hybridoma supernatant; also called hybridoma supernatant 36G9
In the case of B1, the OD450 nm [1] is reported as 2.05.

B2: F4-1 (antibody of hybridoma 3H6) (antibody, V domains shown)
VH: QIQLQQSGPELVKPGASVKISCKASGYTFTDNYINWVKQRPGQGLEYIGWIYPGSGNNKFNEKFKGKATLTVDTSSRTAFMQLSSLTFEDSAVYFCARDYPFPSYHYGMDYWGQGTSVTVSS
VL: QILLTQSPAIMSASPGERVTITCSASSSVSYIHWFQQKPGTSPKLWIYSTSNLASGVPPRFSGSGSGTSFSLTVSRMEAEDAATYYCQQRSSYPPTFGGGTKLEIK
notes: murine antibody tested as hybridoma supernatant; also called hybridoma supernatant 3H6
With B2 the OD450 nm [1] was 2.33.

B3: M4 (antibody of hybridoma 17F3) (antibody, V domains shown)
VH: QVQLQQSGAELARPGASVKLSCKASGYSFTTYGVPWVKQRTGQGLEWIGDIYPRSGNTYYNEKFKGKATLTADKSSDTVFMELRSLSSEDSAVYFCAREDYDNYPYALDYWGQGTSVTVSS
VL: EIVLTQSPAIIAASPGEKVTITCSASSSVFNMNWYQQKPGSSPKIWIYDISKLASGVPGRFSGSGSGTSFSLTINSMEAEDVGTYYCQQRSFYPPTFGGGTKVEIK
notes: murine antibody tested as hybridoma supernatant; also called hybridoma supernatant 17F3
B3 was tested, and the OD450 nm [1] was 1.9.

B4: ChiM6 (antibody, human IgG1, kappa, V domains shown)
VH: QVQLQQSGAELMKPGASVKLSCKATGYRFIPYWIEWIKERPGHGLEWIGEILPGTGRTNYNEKFKGKATFTADTSSNTAYMQLSSLTTEDSAIYYCARYGDDTSGGYYAVDYWGQGTSVTVSS
VL: DIVMTQSSASLAMSLGQRATISCRASESVNILGTNLIHWYQQKPGQPPKLLIYHASNLETGVPARFSGSGSRTDFTLTIDPVEEDDVAIYYCLQSRKIPWTFGGGTKLEIKR
notes: murine variable regions on human IgG1 constant regions; also called chimeric antibody of M6
Binder B4 has an Emax [2] of 70900.

B5: ZalH4 (antibody, human IgG1, kappa, V domains shown)
VH: QVQLVESGGGVVQPGRSLRLSCAASGFTFSTYGMHWVRQAPGKGLEWVAVIWDDGSYKYYGDSVKGRFTISRDNSKNTLYLQMNSLRAEDTAVYYCARDGVTMVRGVMKDYFDYWGQGTLVTVSS
VL: DIQLTQSPSSLSASVGDRVTITCRASQDISSALVWYQQKPGKAPKLLIYDASSLESGVPSRFSGSESGTDFTLTISSLQPEDFATYYCQQFNSYPLTFGGGTKVEIKR
notes: anti-EGFR zalutumumab variant, human IgG1; also called EGFR monoclonal antibody ZalH4
B5 showed an Emax [3] of 13000, an Emax [4] of 37600 and a Kd [5] of 44.3 nM. It also gave a Kd [6] of 33 nM and a Kd [7] of 477 nM.

B6: ZalH4-9-A (antibody, human IgG1, kappa, V domains shown)
VH: QVQLVESGGGVVQPGRSLRLSCAASGFTFSTYGMHWVRQAPGKGLEWVAVIWDDGSYKYYGDSVKGRFTISRDNSKNTLYLQMNSLRAEDTAVYYCARDGVTMVRGVMKDYFDYWGQGTLVTVSS
VL: DIQLTQSPSSLSASVGDRVTITCRASQDISSALVWYQQKPGKAPKLLIYDASSLESGVPSRFSGSESGTDFTLTISSLQPEDFATYYCQQFNSYPLTFGGGTKVEIKR
modifications: compound 9-A coupled to reduced cysteines of the antibody (chains and sites not stated), average DAR n=5.94
notes: also called EGFR monoclonal antibody ADC
With B6 the Emax [3] was 14400 and the Emax [4] was 31700.

B7: M4-H1L1 (antibody, human IgG1, kappa)
heavy: not shown
light: DIQMTQSPSSLSASVGDRVTITCSASSSVFNMNWYQQKPGKSPKLWIYDISKLASGVPSRFSGSGSGTDFTLTISSLQPEDFATYYCQQRSFYPPTFGGGTKVEIKRTVAAPSVFIFPPSDEQLKSGTASVVCLLNNFYPREAKVQWKVDNALQSGNSQESVTEQDSKDSTYSLSSTLTLSKADYEKHKVYACEVTHQGLSSPVTKSFNRGEC
notes: humanized, human IgG1
B7 was tested, and the Kd [8] was 5.27 nM and the Kd [9] was 18.9 nM.

B8: M4H1L1-ZalH4 (bispecific antibody, human IgG1, kappa)
heavy: not shown
light: DIQMTQSPSSLSASVGDRVTITCSASSSVFNMNWYQQKPGKSPKLWIYDISKLASGVPSRFSGSGSGTDFTLTISSLQPEDFATYYCQQRSFYPPTFGGGTKVEIKRTVAAPSVFIFPPSDEQLKSGTASVVCLLNNFYPREAKVQWKVDNALQSGNSQESVTEQDSKDSTYSLSSTLTLSKADYEKHKVYACEVTHQGLSSPVTKSFNRGEC
chain 1: not shown
chain 2: DIQLTQSPSSLSASVGDRVTITCRASQDISSALVWYQQKPGKAPKLLIYDASSLESGVPSRFSGSESGTDFTLTISSLQPEDFATYYCQQFNSYPLTFGGGTKVEIKGGGGSSGAPRFLTRPKASVVSVGKDATLSCQIVGNPFPQVSWEKDKQPVTAGVRFRLAQDGDLYRLKILDLQLSDSGQYVCRARNAHGEAFACLGLQVDAEA
notes: also called anti-EGFR-MUC1 bispecific antibody
Work on B8 yielded a Kd [10] of 10.4 nM, a koff [10] of 0.00144 s⁻¹ and a kon [10] of 139000 M⁻¹ s⁻¹. The Kd [6] was 14.8 nM, the Kd [7] was 243 nM and the Kd [9] was 17.8 nM. It also gave a Kd [11] of 18 nM and a Kd [12] of 19.6 nM.
